Results from paper PMC3711457, “Control of DNA minor groove width and Fis protein binding by the purine 2-amino group” (Nucleic Acids Research, 2013).

Legend:
[1] = biological target: the molecule itself; experiment: crystal structure; Fis co-crystallized with DNA duplexes F28, F28-dI, F28-2AP and F29-dI; data collected at 100 K; molecular replacement with Fis-F1 (PDB 3IV5)
Fis-K90A [2] = biological target: T1, Fis-K90A (UniProt P0A6R3 1-98, K90A); experiment: EMSA; 50 ug/ml poly dI/dC; binding largely restored; EMSA with 50 ug/ml poly dI/dC as in ref 19; buffer, salt, pH and temperature not stated in the material; details: protein: recombinant; chain copies: 2; label: 32P; 27 bp duplex
Fis (wild type) [3] = biological target: T2, Fis (wild type) (UniProt P0A6R3 1-98); experiment: EMSA; 50 ug/ml poly dI/dC; 60-fold better than F28; half-life 14 min; EMSA with 50 ug/ml poly dI/dC as in ref 19; buffer, salt, pH and temperature not stated in the material; details: protein: recombinant; chain copies: 2; label: 32P; 27 bp duplex
Fis-K90A [4] = biological target: T1, Fis-K90A; experiment: EMSA; 50 ug/ml poly dI/dC; EMSA with 50 ug/ml poly dI/dC as in ref 19; buffer, salt, pH and temperature not stated in the material; details: protein: recombinant; chain copies: 2; duplex
Fis (wild type) [5] = biological target: T2, Fis (wild type); experiment: as above; details: protein: recombinant; chain copies: 2; duplex
Fis (wild type) [6] = biological target: T2, Fis (wild type); experiment: X-ray crystallography; 2.7 A; EMSA with 50 ug/ml poly dI/dC as in ref 19; buffer, salt, pH and temperature not stated in the material; details: protein: recombinant; chain copies: 2; label: 32P; 27 bp duplex
Fis-K90A [7] = biological target: T1, Fis-K90A; experiment: EMSA; 50 ug/ml poly dI/dC; essentially abolished; EMSA with 50 ug/ml poly dI/dC as in ref 19; buffer, salt, pH and temperature not stated in the material; details: protein: recombinant; chain copies: 2; label: 32P; 27 bp duplex
Fis (wild type) [8] = biological target: T2, Fis (wild type); experiment: X-ray crystallography; 2.8 A; EMSA with 50 ug/ml poly dI/dC as in ref 19; buffer, salt, pH and temperature not stated in the material; details: protein: recombinant; chain copies: 2; label: 32P; duplex
Fis (wild type) [9] = biological target: T2, Fis (wild type); experiment: EMSA; 50 ug/ml poly dI/dC; 230-fold better than F29; half-life 5 min; EMSA with 50 ug/ml poly dI/dC as in ref 19; buffer, salt, pH and temperature not stated in the material; details: protein: recombinant; chain copies: 2; label: 32P; duplex
Fis-K90A [10] = biological target: T1, Fis-K90A; experiment: EMSA; 50 ug/ml poly dI/dC; EMSA with 50 ug/ml poly dI/dC as in ref 19; buffer, salt, pH and temperature not stated in the material; details: protein: recombinant; chain copies: 2; label: 32P; 27 bp duplex
Fis (wild type) [11] = biological target: T2, Fis (wild type); experiment: EMSA; 50 ug/ml poly dI/dC; high-affinity reference, Kd in figure only; EMSA with 50 ug/ml poly dI/dC as in ref 19; buffer, salt, pH and temperature not stated in the material; details: protein: recombinant; chain copies: 2; label: 32P; 27 bp duplex

B1: Fis protein (natural protein)
chain: MFEQRVNSDVLTVSTVNSQDQVTQKPLRDSVKQALKNYFAQLNGQDVNDLYELVLAEVEQPLLDMVMQYTRGNQTRAALMMGINRGTLRKKLKKYGMN
notes: also called Fis-wt; wild-type Fis
[1]
  binding result: binds

B2: F28-dI (dsDNA)
DNA 1: AAATTTGTTTGAGCGTTGAGCAAATTT
DNA 2: AAATTTGCTCAACGCTCAAACAAATTT
modifications: inosine replaces the guanines of the three central G/C pairs (ICI), on both strands
Fis-K90A [2]
  binding result: binds
Fis (wild type) [3]
  Kd: < 1 nM

B3: F27 (dsDNA)
DNA 1: AAATTTGTTTGAACTTTGAGCAAATTT
DNA 2: AAATTTGCTCAAAGTTCAAACAAATTT
Fis-K90A [4]
  binding signal: 10 fold worse than Fis-wt
Fis (wild type) [5]
  binding signal: ~1 fold of F1 (indistinguishable)

B4: F28 (dsDNA)
DNA 1: AAATTTGTTTGAGCGTTGAGCAAATTT
DNA 2: AAATTTGCTCAACGCTCAAACAAATTT
Fis (wild type) [6]
  binding result: binds
Fis-K90A [7]
  binding result: no binding

B5: F28-2AP (dsDNA)
DNA 1: AAATTTGTTTGAATATTGAGCAAATTT
DNA 2: AAATTTGCTCAATATTCAAACAAATTT
modifications: 2-aminopurine in three central 2AP/T pairs (2T2), on both strands
Fis (wild type) [8]
  binding result: binds

B6: F29-dI (dsDNA)
DNA 1: AAATTTGTTTGGGCGCTGAGCAAATTT
DNA 2: AAATTTGCTCAGCGCCCAAACAAATTT
modifications: inosine replaces the guanines of the five central G/C pairs (IICIC), on both strands
Fis (wild type) [9]
  binding signal: ~8 fold worse than F1

B7: F30 (dsDNA)
DNA 1: AAAGCGGTTTGAATTTTGAGCCGCTTT
DNA 2: AAAGCGGCTCAAAATTCAAACCGCTTT
Fis-K90A [4]
  binding signal: 9 fold worse than Fis-wt

B8: F1 (dsDNA)
DNA 1: AAATTTGTTTGAATTTTGAGCAAATTT
DNA 2: AAATTTGCTCAAAATTCAAACAAATTT
Fis-K90A [10]
  binding signal: ~1 fold of Fis-wt (indistinguishable)
Fis (wild type) [11]
  binding result: binds
